# Laboratory results: patent US20160083713
# T1: Protein 8: Exiguobacterium PAL-like domain with N-terminal TAP purification tag and HRV14 3C protease site linker
# T1 sequence: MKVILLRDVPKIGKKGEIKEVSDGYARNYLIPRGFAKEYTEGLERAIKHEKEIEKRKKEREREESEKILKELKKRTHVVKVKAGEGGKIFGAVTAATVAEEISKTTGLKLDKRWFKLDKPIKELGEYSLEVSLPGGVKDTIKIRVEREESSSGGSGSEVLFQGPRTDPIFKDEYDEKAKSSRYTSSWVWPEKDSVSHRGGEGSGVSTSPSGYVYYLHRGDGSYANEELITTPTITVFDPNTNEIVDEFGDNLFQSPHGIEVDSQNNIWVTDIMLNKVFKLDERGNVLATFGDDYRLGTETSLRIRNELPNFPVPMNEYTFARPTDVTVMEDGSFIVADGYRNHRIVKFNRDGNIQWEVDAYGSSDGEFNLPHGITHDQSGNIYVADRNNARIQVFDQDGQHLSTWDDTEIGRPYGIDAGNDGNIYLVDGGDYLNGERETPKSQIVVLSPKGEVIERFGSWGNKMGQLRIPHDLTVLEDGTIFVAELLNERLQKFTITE
# T2: Protein 3: Erythrobacter sp. SD-21 PAL-like domain with N-terminal TAP purification tag (ribosomal protein L9 from T. maritima) and HRV14 3C protease site linker
# T2 sequence: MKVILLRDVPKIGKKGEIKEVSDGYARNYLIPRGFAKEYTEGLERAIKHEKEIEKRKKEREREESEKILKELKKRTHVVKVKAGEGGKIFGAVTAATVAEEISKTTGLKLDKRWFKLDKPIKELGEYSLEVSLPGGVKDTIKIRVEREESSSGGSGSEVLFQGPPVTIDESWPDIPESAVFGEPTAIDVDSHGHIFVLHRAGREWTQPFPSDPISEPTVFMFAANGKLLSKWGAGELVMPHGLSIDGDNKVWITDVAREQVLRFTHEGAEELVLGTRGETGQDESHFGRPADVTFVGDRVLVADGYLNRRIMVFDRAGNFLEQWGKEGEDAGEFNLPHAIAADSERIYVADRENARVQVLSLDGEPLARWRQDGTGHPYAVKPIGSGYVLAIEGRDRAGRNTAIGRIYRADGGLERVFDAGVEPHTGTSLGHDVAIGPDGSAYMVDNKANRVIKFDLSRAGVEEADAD
# T3: TAP tagged amylin analog model peptide (SEQ ID NO:17), alpha-hydroxyglycine intermediate form
# T3 chain: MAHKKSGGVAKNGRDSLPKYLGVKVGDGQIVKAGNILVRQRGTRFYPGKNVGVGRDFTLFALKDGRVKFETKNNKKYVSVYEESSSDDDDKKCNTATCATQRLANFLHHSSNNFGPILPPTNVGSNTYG
# T4: TAP tagged C-terminal Gly extended amylin analog model peptide (SEQ ID NO:17), precursor form
# T4 chain: T3 chain
# B1: Erythrobacter PAL-like domain (SEQ ID NO: 1) (protein)
# chain: GPPVTIDESWPDIPESAVFGEPTAIDVDSHGHIFVLHRAGREWTQPFPSDPISEPTVFMFAANGKLLSKWGAGELVMPHGLSIDGDNKVWITDVAREQVLRFTHEGAEELVLGTRGETGQDESHFGRPADVTFVGDRVLVADGYLNRRIMVFDRAGNFLEQWGKEGEDAGEFNLPHAIAADSERIYVADRENARVQVLSLDGEPLARWRQDGTGHPYAVKPIGSGYVLAIEGRDRAGRNTAIGRIYRADGGLERVFDAGVEPHTGTSLGHDVAIGPDGSAYMVDNKANRVIKFDLSRAGVEEADAD
# B2: Protein 10: Planctomyces DSM 8797 PAL-like domain with N-terminal TAP purification tag and HRV14 3C protease site linker (protein)
# chain: MKVILLRDVPKIGKKGEIKEVSDGYARNYLIPRGFAKEYTEGLERAIKHEKEIEKRKKEREREESEKILKELKKRTHVVKVKAGEGGKIFGAVTAATVAEEISKTTGLKLDKRWFKLDKPIKELGEYSLEVSLPGGVKDTIKIRVEREESSSGGSGSEVLFQGPADKIDFEPAAINIELPEGLALGPASAVDFDSKGRMYLFHRGPQPILVFDQSGKFVRSWGDKLISQAHGLRVAPDETIWVTDIGNHMVFQFNPEGKLLLALGQAGKPGDSQDQFNKPTDIAFGPQGEFYISDGYGNSRVMKFAANGKNLGQWGTPGKGPGEFNLPHSILVDAKGRVLVGDRENDRVQIFDLEGNLLEIWTGFAPYGMEFDSRGNLFVADGRANKVLQLNASGKVENSWGKTGKEPGEYNLPHMLAVDAAGNLFVTEIGGKRLQKLQRK
# B3: Protein 3: Erythrobacter sp. SD-21 PAL-like domain with N-terminal TAP purification tag (ribosomal protein L9 from T. maritima) and HRV14 3C protease site … (protein)
# chain: T2 sequence
# B4: Planctomyces PAL-like domain (SEQ ID NO: 4) (protein)
# chain: GPADKIDFEPAAINIELPEGLALGPASAVDFDSKGRMYLFHRGPQPILVFDQSGKFVRSWGDKLISQAHGLRVAPDETIWVTDIGNHMVFQFNPEGKLLLALGQAGKPGDSQDQFNKPTDIAFGPQGEFYISDGYGNSRVMKFAANGKNLGQWGTPGKGPGEFNLPHSILVDAKGRVLVGDRENDRVQIFDLEGNLLEIWTGFAPYGMEFDSRGNLFVADGRANKVLQLNASGKVENSWGKTGKEPGEYNLPHMLAVDAAGNLFVTEIGGKRLQKLQRK
# B5: rat PHM domain (amino acids 36 to 497 of the 976 aa full-length rat PAM sequence), His tagged (protein)
# chain: FKETTRSFSNECLGTIGPVTPLDASDFALDIRMPGVTPKESDTYFCMSMRLPVDEEAFVIDFKPRASMDTVHHMLLFGCNMPSSTGSYWFCDEGTCTDKANILYAWARNAPPTRLPKGVGFRVGGETGSKYFVLQVHYGDISAFRDNHKDCSGVSVHLTRVPQPLIAGMYLMMSVDTVIPPGEKVVNADISCQYKMYPMHVFAYRVHTHHLGKVVSGYRVRNGQWTLIGRQNPQLPQAFYPVEHPVDVTFGDILAARCVFTGEGRTEATHIGGTSSDEMCNLYIMYYMEAKYALSFMTCTKNVAPDMFRTIPAEANIPIPVKPDMVMMHGHHKEAENKEKSALMQQPKQGEEEVLEQGDFYSLLSKLLGEREDVHVHKYNPTEKTESGSDLVAEIANVVQKKDLGRSDAREGAEHEEWGNAILVRDRIHRFHQLESTLRPAESRAFSFQQPGEGPWEPEPSG
# What was measured:
# [1] = tested on: T1, Protein 8: Exiguobacterium PAL-like domain with N-terminal TAP purification tag and HRV14 3C protease site linker
# [2] = tested on: T2, Protein 3: Erythrobacter sp. SD-21 PAL-like domain with N-terminal TAP purification tag (ribosomal protein L9 from T. maritima) and HRV14 3C protease site linker
# [3] = target: C-terminal alpha-hydroxyglycine extended Pramlintide (alpha-hydroxylated SEQ ID NO:25)
# [4] = target: T3, TAP tagged amylin analog model peptide …
# [5] = target: C-terminally Gly-extended Pramlintide (SEQ ID NO: 25)
# [6] = target: T4, TAP tagged C-terminal Gly extended …
Molecule,"conversion of the alpha-hydroxyglycine intermediate to alpha amidated Pramlintide, LC-MS, 37 C, 1 h [3]","conversion to the alpha amidated form, LC-MS, co-incubation with rat PHM at 37 C [4]",also measured
TAP tagged HRV14 3C protease (from WO 2008/043847),–,–,"proteolytic cleavage at the linker, SDS-PAGE, overnight, enzyme to substrate 1:25 [1]: two fragments corresponding to the mature Exiguibacterium PAL-like domain (SEQ ID NO:2) (upper band) and the released TAP tag (SEQ ID NO:7-SEQ ID NO:8) (lower band) was present in the application; proteolytic cleavage at the linker, LC-MS and SDS-PAGE, overnight at 30 C, enzyme to substrate 1:25 [2]: resulted in two fragments determined to 33323 Da and 18284.78 Da corresponding to the released PAL-like domain ... and to the released purification tag and HRV14 3C linker"
B1,could almost completely convert the peptide substrate to fully alpha-amidated peptide using a enzyme to substrate ratio of 1:100,–,–
B2,–,With protein 10 total conversion of the precursor was observed already after 1 h-2 h incubation,–
B3,–,near complete conversion to the alpha amidated form required 5 hours incubation with the protein 3 enzyme,–
B4,could almost completely convert the peptide substrate to fully alpha-amidated peptide using a enzyme to substrate ratio of 1:100,–,–
B5,–,–,"conversion of Gly-extended Pramlintide to the alpha-hydroxyglycine form, LC-MS, enzyme to substrate 1:20 (w/w), 37 C, 2 h [5]: it was verified that the intermediate alpha-hydroxyglycine form of Pramlintide was obtained; conversion of the C-terminal Gly to alpha-hydroxyglycine, LC-MS after 2 hours at 37 C [6]: the vast majority of the model peptide was on the intermediate form comprising a α-hydroxyglycine in the C-terminal"
